Experiment [1] deals with T1, human LAG-3 on cells (HEK293-hLAG-3 stable cell line) (human, UniProt P18627 23-525).
T1 sequence: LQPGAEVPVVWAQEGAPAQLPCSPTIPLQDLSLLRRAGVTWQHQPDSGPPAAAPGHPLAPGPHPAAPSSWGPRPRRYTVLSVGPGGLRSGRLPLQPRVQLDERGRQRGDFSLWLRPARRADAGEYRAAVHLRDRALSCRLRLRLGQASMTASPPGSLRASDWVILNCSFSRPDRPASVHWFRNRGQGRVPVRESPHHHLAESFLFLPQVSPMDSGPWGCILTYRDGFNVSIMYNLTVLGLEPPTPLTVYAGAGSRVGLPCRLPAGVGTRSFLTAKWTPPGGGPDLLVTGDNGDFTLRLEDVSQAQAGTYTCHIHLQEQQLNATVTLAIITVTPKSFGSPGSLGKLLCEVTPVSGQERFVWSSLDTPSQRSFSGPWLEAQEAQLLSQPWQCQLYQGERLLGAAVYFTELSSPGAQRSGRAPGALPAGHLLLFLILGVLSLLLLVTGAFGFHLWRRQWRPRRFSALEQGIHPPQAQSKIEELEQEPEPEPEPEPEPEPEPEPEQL
Description: FACS, HEK293-hLAG-3, antibody 0 nM.

Experiment [2] concerns the target T1, human LAG-3 on cells (HEK293-hLAG-3 …). Description: FACS, HEK293-hLAG-3, antibody 40 nM. The source says: (§1) A. The binding of antibodies to LAG-3 expressing cells was detected by Flow cytometry (FACS), wherein the method was according to that of Example 5.
Experiment [3] has the same target. Kind of experiment: FACS, HEK293-hLAG-3, antibody 0.064 nM.
Text: as §1

Experiment [4] shares this target. Kind of experiment: FACS, HEK293-hLAG-3, antibody 0.32 nM.
Text: as §1
(In general: In flow cytometry, cells or beads pass a laser one at a time.)

For experiment [5] the target is unchanged. Kind of experiment: FACS, HEK293-hLAG-3, antibody 8 nM.
Text: as §1

The target is the same in experiment [6]. Kind of experiment: FACS, HEK293-hLAG-3, antibody 0.013 nM.
Text: as §1

The target is the same in experiment [7]. Kind of experiment: FACS, HEK293-hLAG-3, antibody 1.6 nM.

Results on eight molecules are retold here after US20210155689A1 (SHANGHAI PHARMAEXPLORER, published 2021).

B1: 405B8H3-3 humanized antibody (antibody, V domains shown)
VH: QVQLVQSGAEVKKPGASVKVSCKASGYTFTDYEMHWVRQAPGQGLEWIGATDPETGNSAYNQKFKGRATMTADKSTSTAYMELSSLRSEDTAVYYCISTGWNDWGQGTTVTVSS
VL: DIQMTQSPSSLSASVGDRVTITCKASQDINSYLSWFQQKPGKAPKSLIYRADRLLDGVPSRFSGSGSGTDFTLTISSLQPEDFATYYCLQYDEFPYTFGQGTKLEIK
Regarding B1, the Mean fluorescence intensity in experiment [1] turned out to be 4; in experiment [2], 253; in experiment [3], 26; in experiment [4], 74; in experiment [5], 230; in experiment [6], 11. For the same molecule, the Mean fluorescence intensity in experiment [7] was determined as 173.

B2: 405B8H3-11 humanized antibody (antibody, V domains shown)
VH: QVQLVQSGAEVKKPGASVKVSCKASGYTFTDYEMHWVRQAPGQGLEWIGATDPETGNSAYNQKFKGRATMTADKSTSTAYMELSSLRSEDTAVYYCISTGWNDWGQGTTVTVSS
VL: DIKMTQSPSSLSASVGDRVTITCKASQDINSYLSWFQQKPGKSPKSLIYRADRLLDGVPSRFSGSGSGQDYTLTISSLQPEDFATYYCLQYDEFPYTFGQGTKLEIK
For B2, the Mean fluorescence intensity in experiment [1] is 4; in experiment [2] it was 230; in experiment [3] it was 25; in experiment [4] it was 71; in experiment [5] it was 220; in experiment [6], 11. For the same molecule, the Mean fluorescence intensity in experiment [7] turned out to be 164.

B3: 405B8H3-12 humanized antibody (antibody, V domains shown)
VH: QVQLVQSGAEVKKPGASVKVSCKASGYTFTDYEMHWVKQAPGQGLEWIGATDPETGNSAYNQKFKGKATMTADKSTSTAYMELSSLRSEDTAVYYCISTGWNDWGQGTTVTVSS
VL: DIKMTQSPSSLSASVGDRVTITCKASQDINSYLSWFQQKPGKSPKSLIYRADRLLDGVPSRFSGSGSGQDYTLTISSLQPEDFATYYCLQYDEFPYTFGQGTKLEIK
In the case of B3, the Mean fluorescence intensity in experiment [1] worked out at 4; in experiment [2], 229; in experiment [3], 23; in experiment [4] it was 61; in experiment [5] it was 207; in experiment [6], 11. The same molecule gave a Mean fluorescence intensity in experiment [7] of 142.

B4: 405B8H3-4 humanized antibody (antibody, V domains shown)
VH: QVQLVQSGAEVKKPGASVKVSCKASGYTFTDYEMHWVKQAPGQGLEWIGATDPETGNSAYNQKFKGKATMTADKSTSTAYMELSSLRSEDTAVYYCISTGWNDWGQGTTVTVSS
VL: DIQMTQSPSSLSASVGDRVTITCKASQDINSYLSWFQQKPGKAPKSLIYRADRLLDGVPSRFSGSGSGTDFTLTISSLQPEDFATYYCLQYDEFPYTFGQGTKLEIK
B4: the Mean fluorescence intensity in experiment [1] was found to be 4; in experiment [2], 251; in experiment [3], 23; in experiment [4], 63; in experiment [5] it was 217; in experiment [6], 10. The molecule also returned a Mean fluorescence intensity in experiment [7] of 151.

B5: 405B8H3-10 humanized antibody (antibody, V domains shown)
VH: QVQLVQSGAEVKKPGASVKVSCKASGYTFTDYEMHWVRQAPGQGLEWMGATDPETGNSAYNQKFKGRVTMTADKSTSTVYMELSSLRSEDTAVYYCISTGWNDWGQGTTVTVSS
VL: DIKMTQSPSSLSASVGDRVTITCKASQDINSYLSWFQQKPGKSPKSLIYRADRLLDGVPSRFSGSGSGQDYTLTISSLQPEDFATYYCLQYDEFPYTFGQGTKLEIK
In the case of B5, the Mean fluorescence intensity in experiment [1] is 4; in experiment [2] it was 238; in experiment [3], 25; in experiment [4], 82; in experiment [5], 229; in experiment [6], 11. In experiment [7], this molecule displayed a Mean fluorescence intensity of 184.

B6: 405B8H3-5 humanized antibody (antibody, V domains shown)
VH: QVQLVQSGAEVKKPGASVKVSCKASGYTFTDYEMHWVRQAPGQGLEWMGATDPETGNSAYNQKFKGRVTMTRDTSTSTVYMELSSLRSEDTAVYYCISTGWNDWGQGTTVTVSS
VL: DIQMTQSPSSLSASVGDRVTITCKASQDINSYLSWFQQKPGKAPKSLIYRADRLLDGVPSRFSGSGSGQDYTLTISSLQPEDFATYYCLQYDEFPYTFGQGTKLEIK
With B6, the Mean fluorescence intensity is 4 in experiment [1]; 257 in experiment [2]; 21 in experiment [3]; 62 in experiment [4]; 243 in experiment [5]; 9 in experiment [6]. In experiment [7], the Mean fluorescence intensity worked out at 174.

B7: 405B8H3-8 humanized antibody (antibody, V domains shown)
VH: QVQLVQSGAEVKKPGASVKVSCKASGYTFTDYEMHWVKQAPGQGLEWIGATDPETGNSAYNQKFKGKATMTADKSTSTAYMELSSLRSEDTAVYYCISTGWNDWGQGTTVTVSS
VL: DIQMTQSPSSLSASVGDRVTITCKASQDINSYLSWFQQKPGKAPKSLIYRADRLLDGVPSRFSGSGSGQDYTLTISSLQPEDFATYYCLQYDEFPYTFGQGTKLEIK
For B7, the Mean fluorescence intensity in experiment [1] amounted to 4; in experiment [2], 242; in experiment [3], 19; in experiment [4], 52; in experiment [5], 213; in experiment [6], 8. This molecule also came in with a Mean fluorescence intensity in experiment [7] of 134.

B8: 405B8H3-9 humanized antibody (antibody, V domains shown)
VH: QVQLVQSGAEVKKPGASVKVSCKASGYTFTDYEMHWVRQAPGQGLEWMGATDPETGNSAYNQKFKGRVTMTRDTSTSTVYMELSSLRSEDTAVYYCISTGWNDWGQGTTVTVSS
VL: DIKMTQSPSSLSASVGDRVTITCKASQDINSYLSWFQQKPGKSPKSLIYRADRLLDGVPSRFSGSGSGQDYTLTISSLQPEDFATYYCLQYDEFPYTFGQGTKLEIK
B8: the Mean fluorescence intensity was 4 in experiment [1]; 249 in experiment [2]; 43 in experiment [3]; 132 in experiment [4]; 246 in experiment [5]; 14 in experiment [6]. In experiment [7], this molecule came in with a Mean fluorescence intensity of 218.
